Data on three molecules can be found in patent publication US20220249633A1.

In this test the target is HLA-A*24 (human). The test can be described thus: UV-exchange ELISA, exchange yield grade. For orientation: An ELISA detects its analyte on a solid surface through an enzyme-linked reagent.
The molecule TFSDVEAHF [… (SEQ ID NO: 386)] displayed a peptide exchange yield of 50 to 75%. Consider KYTEKLEEI [… (SEQ ID NO: 387)], for which the peptide exchange yield was 50 to 75%. With IYGEKTYAF [… (SEQ ID NO: 388)], the peptide exchange yield was in the range of 50 to 75%.
